Laboratory results published in IntAct's records for PubMed 26237645.

B1: Fumarate hydratase, mitochondrial (Homo sapiens), P07954 (parent)
chain: MYRALRLLARSRPLVRAPAAALASAPGLGGAAVPSFWPPNAARMASQNSFRIEYDTFGELKVPNDKYYGAQTVRSTMNFKIGGVTERMPTPVIKAFGILKRAAAEVNQDYGLDPKIANAIMKAADEVAEGKLNDHFPLVVWQTGSGTQTNMNVNEVISNRAIEMLGGELGSKIPVHPNDHVNKSQSSNDTFPTAMHIAAAIEVHEVLLPGLQKLHDALDAKSKEFAQIIKIGRTHTQDAVPLTLGQEFSGYVQQVKYAMTRIKAAMPRIYELAAGGTAVGTGLNTRIGFAEKVAAKVAALTGLPFVTAPNKFEALAAHDALVELSGAMNTTACSLMKIANDIRFLGSGPRSGLGELILPENEPGSSIMPGKVNPTQCEAMTMVAAQVMGNHVAVTVGGSNGHFELNVFKPMMIKNVLHSARLLGDASVSFTENCVVGIQANTERINKLMNESLMLVTALNPHIGYDKAAKIAKTAHKNGSTLKETAIELGYLTAEQFDEWVKPKDMLGPK

Variants of: B1
Conditions: with h2az_human H2AZ1, P0C0S5
Sequence of h2az_human H2AZ1, P0C0S5 (P0C0S5 whole entry): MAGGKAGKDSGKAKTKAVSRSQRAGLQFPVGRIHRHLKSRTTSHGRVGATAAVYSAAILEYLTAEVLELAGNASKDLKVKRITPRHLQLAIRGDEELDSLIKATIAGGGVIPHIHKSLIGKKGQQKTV

Row | Variant | effect of a mutation on the interaction
1 | T236D | increasing interaction strength
2 | T236A | disrupting interaction strength

Variants of: B1
Conditions: with h2az_human H2AZ1, P0C0S5
Remark: another data set of the same source

Row | Variant | effect of a mutation on the interaction
3 | T236A | decreasing interaction strength
